Assay results as given in article PMC10359499.
Values belong to the substance of their own block, whether it stands above or below them.

How the values were obtained:
[1] = molecular target: MS367 (PAS histidine kinase from Methylocella silvestris BL2) (Methylocella silvestris BL2); assay: SEC-MALS; PAS-HKs MS367 and RE356; mixtures, and monomer and dimer fractions purified separately and reinjected on Superdex 200 GL; HSEC buffer with 1 mM ATP; FPLC at 4 °C, MALS at 25 °C; n = 1
[2] = molecular target: RE356 (PAS histidine kinase from Rhizobium etli CFN 42) (Rhizobium etli CFN 42); assay: as above
[3] = molecular target: RH376 WT (LOV histidine kinase); assay: SEC-MALS; LOV-HKs and RH376 deletion mutants; ~15 μM sample (400 μl) with 1 mM ATP on Superdex 200 GL 10/300 in HSEC buffer (50 mM Hepes pH 7.5, 100 mM NaCl, 10 mM MgCl2, 0.5 mM DTT) with 1 mM ATP; dark (dim red light) and lit (blue LED) runs; FPLC at 4 °C, MALS and refractive index at 25 °C; n = 1; oligomeric state on a qualitative five-bin scale
[4] = molecular target: RT349 (LOV histidine kinase from Rubellimicrobium thermophilum) (Rubellimicrobium thermophilum); assay: as above

stoichiometry N [1]: 2
Substance: MS367 (PAS histidine kinase from Methylocella silvestris BL2) (enzyme)

stoichiometry N [2]: 2
Substance: RE356 (PAS histidine kinase from Rhizobium etli CFN 42) (enzyme)

stoichiometry N [3]: 2
Substance: RH376 WT (LOV histidine kinase) (enzyme)

stoichiometry N [4]: 2
Substance: RT349 (LOV histidine kinase from Rubellimicrobium thermophilum) (enzyme)
